US20110166072A1

Columns and labels:
[1] = target: integrin αvβ3 (on rat osteoclast precursors) (rat); test: cell-based or functional assay
[2] = target: platelet glycoprotein αIIbβ3 (on human platelets) (human) (UniProt P08514); test: cell-based or functional assay
[3] = target: integrin αIIbβ3 (on CHO-αIIbβ3 cells) (UniProt P08514); test: cell adhesion inhibition: CHO-αIIbβ3 cells on coated fibrinogen

Substance	Osteoclastogenesis IC50 [1]	Platelet aggregation IC50 [2]	IC50 [3]
AKGDWN (from UniProt P30403 408-475) (ligand)	78.4 µM	0.138 µM	–
AKGDWN (from UniProt P30403 408-475) (ligand; other documents disagree on this pair)	–	–	0.069 µM
HSA-RD (human serum albumin-RD fusion protein) (from UniProt P30403 408-475)	0.00668 µM	0.438 µM	–
HSA-RD (human serum albumin-RD fusion protein) (from UniProt P30403 408-475) (other; other documents disagree on this pair)	–	–	2.75 µM
PRGEMP (from UniProt P30403 408-475) (ligand)	68.2 µM	4.91 µM	–
PRPDDL (from UniProt P30403 408-475) (ligand)	–	3.53 µM	–
PRPDDL (from UniProt P30403 408-475) (ligand; other documents disagree on this pair)	–	–	13.6 µM
